# Where no end group is shown, it is not given here.
# Columns and labels:
# [1] = Appearance of 1.5% peptide solutions with various salts at room temperature; assay type: physicochemical; details: for Appearance: KLD12 solution, room temperature
# Method: The effect of salt ionic strength level on the properties of peptide solutions was evaluated to identify optimized salt ionic strength levels for the peptides as described herein. Increasing the salt ionic strength level of PuraMatrix® and other peptides may generally improve its function and mechanical strength for various clinical applications. To adjust the salt ionic strength of the peptide solutions by way of example, various salt buffer solutions including NaCl, KCl, MgCl2, CaCl2 and DPBS (10×) were added to 2 mL of 1.5% peptide solutions.
# [2] = Rheological properties at adjusted salt ionic strength; assay type: physicochemical; details: NaCl
# Method: Based on the visual observation of the effect of salt ionic strength on the properties of the peptide solutions, the effect on the rheological properties of the peptide solutions after adjusting their ionic strength level with NaCl to 0.7 M (PuraMatrix®), 0.2 M (KLD12) or 0.02 M (IEIK13), which is closely below the critical ionic strength at which each peptide becomes cloudy, was evaluated. If the ionic strength levels with NaCl of peptide solutions are higher than 0.9 M (PuraMatrix®), 0.3 M (KLD12) or 0.03 M (IEIK13), the peptide solution begin phase separation becoming cloudy and weak. The rheological property of PuraMatrix®, KLD12 and IEIK13 solutions was higher after adjusting their ionic strength level with NaCl to 0.7 M (PuraMatrix®), 0.2 M (KLD12) or 0.02 M (IEIK13), The results are shown in FIG. 10 for KLD12 1%, FIG. 11 for IEIK13 1%, and FIG. 12 for PuraMatrix® 1%, respectively. Frequency sweep tests were performed from 1 rad/s to 10 rad/s at 1 Pa.
# Based on the results of the effect on the rheological properties of the peptide solutions after adjusting their ionic strength level with NaCl to 0.7 M (PuraMatrix®), 0.2 M (KLD12) or 0.02 M (IEIK13), the effect on the rheological properties of the peptide solution at various salt ionic strengths was evaluated. […] The results are shown in FIG. 13 for PuraMatrix® 1% solution and in FIG. 14 for IEIK13 1% solution. Frequency sweep tests were performed from 1 rad/sec to 10 rad/sec at 1 Pa and the storage modulus at 1 rad/sec was selected for data.
# Based on the results of the effect on the rheological properties of the peptide solutions after adjusting their ionic strength levels, the effect on the rheological properties of the peptide hydrogels after DMEM treatment for 10 min was evaluated. […] The results are shown in FIG. 15 for PuraMatrix® 1% hydrogels and in FIG. 16 for IEIK13 1% hydrogels, both after DMEM treatment for 10 min. Frequency sweep tests were performed from 1 rad/sec to 10 rad/sec at 1 Pa and the storage modulus at 1 rad/sec was selected for data.
# Based on the results of the effect on the rheological properties of the peptide solutions and hydrogels after adjusting their ionic strength levels with NaCl, the effect of various salts (KCl, MgCl2, and CaCl2) was also evaluated. The rheological property of PuraMatrix® solutions increases with ionic strength adjustment at 0.15 M of all the salts. Increases of the rheological property of PuraMatrix® solutions with various salts were not predominantly different. However, increases of the rheological property of PuraMatrix® solutions may vary depending on the salting out constant, K of each salt. Constant K is a constant in Cohen's equation: log S=B−KI, where S is solubility, B is idealized solubility, K is salting out constant, and I is ionic strength. With a higher value of constant K and ionic strength of salts, solubility of the peptide may decrease resulting in strong peptide self-assembly with increased hydrophobic effect and higher rheological properties of the peptide solution. The constant K of NaCl may be higher than the other salts. […] The results are shown in FIG. 17 for PuraMatrix® 1% solution before DMEM treatment, and in FIG. 18 for PuraMatrix® 1% hydrogels after DMEM treatment for 10 min.
# In accordance with one or more embodiments, IEIK13, KLD12, and PuraMatrix® may be dissolved both in salt buffer such as NaCl and at an elevated pH level adjusted with alkali salt buffer such as NaOH to keep their salt ionic strength under their critical salt points as well as their pH level to about 2.5˜4.0, so that they may have stiffer properties. With respect to PuraMatrix®, […] and IEIK13, the peptide solutions are still clear with 0.9% NaCl (ionic strength: 0.15 M) at pH 3.4 adjusted with NaOH. […] The effect of salt ionic strength and pH adjustment on the rheological properties of PuraMatrix® 2.5% solution are shown in FIG. 20. […]
sequence,measurement,setting,value
KLDLKLDLKLDL [KLD12],Appearance,"[1]; conc. 1.3%, KCl 0.4 M, ionic strength 0.4 M","Cloudy, phase-separated"
same,Appearance,"[1]; conc. 1.3%, NaCl 0.4 M, ionic strength 0.4 M","Cloudy, phase-separated"
same,Appearance,"[1]; conc. 1.32%, KCl 0.35 M, ionic strength 0.35 M","Slightly cloudy, brittle gel"
same,Appearance,"[1]; conc. 1.32%, NaCl 0.35 M, ionic strength 0.35 M","Slightly cloudy, brittle gel"
same,Appearance,"[1]; conc. 1.35%, KCl 0.3 M, ionic strength 0.3 M","Slightly cloudy, thick, stiffer gel"
same,Appearance,"[1]; conc. 1.35%, NaCl 0.3 M, ionic strength 0.3 M","Slightly cloudy, thick, stiffer gel"
same,Appearance,"[1]; conc. 1.38%, KCl 0.25 M, ionic strength 0.25 M","Clear, thick, stiffer gel"
same,Appearance,"[1]; conc. 1.38%, NaCl 0.25 M, ionic strength 0.25 M","Clear, thick, stiffer gel"
same,Appearance,"[1]; conc. 1.4%, KCl 0.2 M, ionic strength 0.2 M","Clear, thick, stiffer gel"
same,Appearance,"[1]; conc. 1.4%, NaCl 0.2 M, ionic strength 0.2 M","Clear, thick, stiffer gel"
same,Appearance,"[1]; conc. 1.42%, CaCl2 0.167 M, ionic strength 0.5 M","Cloudy, phase-separated"
same,Appearance,"[1]; conc. 1.42%, MgCl2 0.167 M, ionic strength 0.5 M","Cloudy, phase-separated"
same,Appearance,"[1]; conc. 1.43%, CaCl2 0.133 M, ionic strength 0.4 M","Slightly cloudy, thick, stiffer gel"
same,Appearance,"[1]; conc. 1.43%, CaCl2 0.15 M, ionic strength 0.45 M","Slightly cloudy, brittle gel"
same,Appearance,"[1]; conc. 1.43%, KCl 0.15 M, ionic strength 0.15 M","Clear, thick, stiffer gel"
same,Appearance,"[1]; conc. 1.43%, MgCl2 0.133 M, ionic strength 0.4 M","Slightly cloudy, thick, stiffer gel"
same,Appearance,"[1]; conc. 1.43%, MgCl2 0.15 M, ionic strength 0.45 M","Slightly cloudy, brittle gel"
same,Appearance,"[1]; conc. 1.43%, NaCl 0.15 M, ionic strength 0.15 M","Clear, thick, stiffer gel"
same,Appearance,"[1]; conc. 1.44%, CaCl2 0.117 M, ionic strength 0.35 M","Clear, thick, stiffer gel"
same,Appearance,"[1]; conc. 1.44%, MgCl2 0.117 M, ionic strength 0.35 M","Clear, thick, stiffer gel"
same,Appearance,"[1]; conc. 1.45%, CaCl2 0.1 M, ionic strength 0.3 M","Clear, thick, stiffer gel"
same,Appearance,"[1]; conc. 1.45%, KCl 0.1 M, ionic strength 0.1 M","Clear, thick, stiffer gel"
same,Appearance,"[1]; conc. 1.45%, MgCl2 0.1 M, ionic strength 0.3 M","Clear, thick, stiffer gel"
same,Appearance,"[1]; conc. 1.45%, NaCl 0.1 M, ionic strength 0.1 M","Clear, thick, stiffer gel"
same,Appearance,"[1]; conc. 1.46%, CaCl2 0.083 M, ionic strength 0.25 M","Clear, thick, stiffer gel"
same,Appearance,"[1]; conc. 1.46%, MgCl2 0.083 M, ionic strength 0.25 M","Clear, thick, stiffer gel"
same,Appearance,"[1]; conc. 1.47%, CaCl2 0.067 M, ionic strength 0.2 M","Clear, thick, stiffer gel"
same,Appearance,"[1]; conc. 1.47%, MgCl2 0.067 M, ionic strength 0.2 M","Clear, thick, stiffer gel"
same,Appearance,"[1]; conc. 1.48%, CaCl2 0.05 M, ionic strength 0.15 M","Clear, thick, stiffer gel"
same,Appearance,"[1]; conc. 1.48%, KCl 0.05 M, ionic strength 0.5 M","Clear, thick, stiffer gel"
same,Appearance,"[1]; conc. 1.48%, MgCl2 0.05 M, ionic strength 0.15 M","Clear, thick, stiffer gel"
same,Appearance,"[1]; conc. 1.48%, NaCl 0.05 M, ionic strength 0.5 M","Clear, thick, stiffer gel"
same,Appearance,"[1]; conc. 1.5%, CaCl2 0 M, ionic strength 0 M","Clear, thick gel"
same,Appearance,"[1]; conc. 1.5%, KCl 0 M, ionic strength 0 M","Clear, thick gel"
same,Appearance,"[1]; conc. 1.5%, MgCl2 0 M, ionic strength 0 M","Clear, thick gel"
same,Appearance,"[1]; conc. 1.5%, NaCl 0 M, ionic strength 0 M","Clear, thick gel"
same,salt ionic strength increase that did not change the clear color of the solution (apparent stiffness increased),"[1]; depending on different salts, 1.5% peptide solutions",0.25˜0.35 M
same,ionic strength level with NaCl above which the solution begins phase separation becoming cloudy and weak,[2],> 0.3 M

# Source: patent US10245299B2, “Autoassembling peptides for the treatment of pulmonary bulla” (3-D MATRIX, LTD., priority 2014, dated 2019)
